One data set has as its target MERTK (UniProt Q12866). The experiment in a line: phosphorylation enrichment, bacterial display (enrichment ratio); higher = better substrate or ligand; peptides without Tyr show the background.
In a further data set the test system is c-Abl (mouse). Described as above.
Another data set concerns the target Hck (UniProt P08631). The data set is described as above.
The next data set concerns the target Fes (UniProt P07332). The description is as above.
Another data set deals with EPHB2 (UniProt P29323). The data set is described as above.
Another data set has as its target EPHB1 (UniProt P54762). Described as above.
The subject of the next data set is AncSZ. The description is as above.
The target in a further data set is FGFR3 (UniProt P22607). Described as above.
The target in a further data set is FGFR1 (UniProt P11362). The data set is described as above.
A further data set concerns Fer (mouse). The description is as above.
The next data set concerns c-Src. Described as above.
For the next data set, the target named is Jak2 (UniProt O60674). Described as above.
Another data set concerns the target Fyn (UniProt P06241). The description is as above.
In a further data set the target is SHP2-C SH2. The experiment in a line: SH2 binding enrichment of the phosphorylated peptide, bacterial display (enrichment ratio); higher = better substrate or ligand; peptides without Tyr show the background.
For a further data set, the target named is Grb2 SH2 (UniProt P62993). Described as above.
Another data set has as its target c-Src SH2. Described as above.
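Wherever SH2 binding enrichment of the phosphorylated peptide, bacterial display is given: peptide library displayed on the E. coli surface as eCPX fusions, selected cells deep-sequenced, score is each peptide's frequency after selection divided by its frequency in the input.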
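Wherever phosphorylation enrichment, bacterial display is given: 11-residue human phosphosite peptides and single-mutation variants displayed on the E. coli surface, counted by deep sequencing, each peptide's frequency after selection divided by its frequency in the unselected input library; frequency after pTyr selection over input frequency; kinase dosed for 20-30% of maximal phosphorylation in three min.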

Chain of Hck (P08631 whole entry, looked up): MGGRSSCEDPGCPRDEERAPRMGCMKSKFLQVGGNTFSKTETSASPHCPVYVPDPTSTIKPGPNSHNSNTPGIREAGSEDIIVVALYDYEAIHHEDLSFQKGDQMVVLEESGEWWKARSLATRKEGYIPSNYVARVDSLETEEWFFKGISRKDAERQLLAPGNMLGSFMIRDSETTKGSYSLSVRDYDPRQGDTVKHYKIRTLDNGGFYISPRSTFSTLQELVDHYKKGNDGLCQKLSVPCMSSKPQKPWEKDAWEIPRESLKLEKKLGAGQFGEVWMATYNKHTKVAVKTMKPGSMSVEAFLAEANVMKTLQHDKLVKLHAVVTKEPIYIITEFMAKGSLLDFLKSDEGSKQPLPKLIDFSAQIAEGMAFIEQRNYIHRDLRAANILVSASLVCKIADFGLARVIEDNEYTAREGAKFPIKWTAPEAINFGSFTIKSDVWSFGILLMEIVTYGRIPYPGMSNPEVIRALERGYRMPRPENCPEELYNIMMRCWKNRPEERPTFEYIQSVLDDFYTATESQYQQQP
Chain of FGFR3 (P22607 whole entry, looked up): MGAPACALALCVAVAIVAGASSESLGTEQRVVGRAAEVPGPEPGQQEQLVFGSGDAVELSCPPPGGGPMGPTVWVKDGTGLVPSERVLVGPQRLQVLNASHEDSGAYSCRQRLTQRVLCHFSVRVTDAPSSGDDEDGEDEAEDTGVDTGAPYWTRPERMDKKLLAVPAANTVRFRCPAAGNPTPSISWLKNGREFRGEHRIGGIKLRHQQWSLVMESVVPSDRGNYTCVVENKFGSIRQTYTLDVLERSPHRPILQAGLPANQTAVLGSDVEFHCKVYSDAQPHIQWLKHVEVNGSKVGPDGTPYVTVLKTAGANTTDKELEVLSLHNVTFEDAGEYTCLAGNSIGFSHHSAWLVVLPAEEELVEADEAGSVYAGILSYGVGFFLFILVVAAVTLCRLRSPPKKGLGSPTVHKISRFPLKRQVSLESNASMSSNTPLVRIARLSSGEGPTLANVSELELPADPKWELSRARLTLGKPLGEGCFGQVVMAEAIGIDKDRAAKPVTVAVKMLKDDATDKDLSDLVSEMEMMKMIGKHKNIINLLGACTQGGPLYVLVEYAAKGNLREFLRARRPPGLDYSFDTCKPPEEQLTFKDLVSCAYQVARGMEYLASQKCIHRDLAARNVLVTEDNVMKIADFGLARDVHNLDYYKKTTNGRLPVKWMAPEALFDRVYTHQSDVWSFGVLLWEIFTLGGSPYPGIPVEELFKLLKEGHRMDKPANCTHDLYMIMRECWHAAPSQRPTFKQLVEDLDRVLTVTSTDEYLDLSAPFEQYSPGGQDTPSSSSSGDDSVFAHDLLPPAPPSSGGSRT
Chain of Grb2 SH2 (P62993 whole entry, looked up): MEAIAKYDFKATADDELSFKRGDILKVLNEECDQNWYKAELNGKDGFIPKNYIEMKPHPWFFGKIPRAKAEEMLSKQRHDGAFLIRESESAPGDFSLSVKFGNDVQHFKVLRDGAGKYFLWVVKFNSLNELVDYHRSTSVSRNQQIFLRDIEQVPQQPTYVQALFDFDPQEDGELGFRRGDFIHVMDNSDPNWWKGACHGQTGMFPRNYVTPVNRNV
Chain of MERTK (Q12866 whole entry, looked up): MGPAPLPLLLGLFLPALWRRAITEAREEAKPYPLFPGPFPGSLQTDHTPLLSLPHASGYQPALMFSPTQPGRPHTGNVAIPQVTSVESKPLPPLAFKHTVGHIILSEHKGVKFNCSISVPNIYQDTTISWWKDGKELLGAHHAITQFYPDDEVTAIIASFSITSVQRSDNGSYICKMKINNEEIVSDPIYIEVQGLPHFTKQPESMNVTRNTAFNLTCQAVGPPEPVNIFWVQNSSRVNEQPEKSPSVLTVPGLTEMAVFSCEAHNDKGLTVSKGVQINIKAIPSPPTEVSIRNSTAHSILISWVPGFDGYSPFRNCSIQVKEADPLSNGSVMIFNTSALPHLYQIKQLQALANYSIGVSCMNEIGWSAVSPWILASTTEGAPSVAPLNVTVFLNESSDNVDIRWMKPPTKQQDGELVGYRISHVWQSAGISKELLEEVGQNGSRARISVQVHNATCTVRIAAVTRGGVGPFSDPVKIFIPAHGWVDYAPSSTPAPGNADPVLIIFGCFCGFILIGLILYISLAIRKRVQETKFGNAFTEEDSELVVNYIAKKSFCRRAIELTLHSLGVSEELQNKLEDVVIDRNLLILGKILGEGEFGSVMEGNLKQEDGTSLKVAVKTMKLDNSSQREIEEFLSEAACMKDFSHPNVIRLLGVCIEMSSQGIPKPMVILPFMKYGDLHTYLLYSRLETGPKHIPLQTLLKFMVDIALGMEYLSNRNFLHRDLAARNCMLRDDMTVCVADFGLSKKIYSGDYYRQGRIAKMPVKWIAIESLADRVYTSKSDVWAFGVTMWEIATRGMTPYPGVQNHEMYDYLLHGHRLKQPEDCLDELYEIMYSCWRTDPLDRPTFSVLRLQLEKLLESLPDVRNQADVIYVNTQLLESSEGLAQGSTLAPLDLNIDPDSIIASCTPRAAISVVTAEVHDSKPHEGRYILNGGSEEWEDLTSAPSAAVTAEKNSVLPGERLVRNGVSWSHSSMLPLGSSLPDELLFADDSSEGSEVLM
Chain of Fyn (P06241 whole entry, looked up): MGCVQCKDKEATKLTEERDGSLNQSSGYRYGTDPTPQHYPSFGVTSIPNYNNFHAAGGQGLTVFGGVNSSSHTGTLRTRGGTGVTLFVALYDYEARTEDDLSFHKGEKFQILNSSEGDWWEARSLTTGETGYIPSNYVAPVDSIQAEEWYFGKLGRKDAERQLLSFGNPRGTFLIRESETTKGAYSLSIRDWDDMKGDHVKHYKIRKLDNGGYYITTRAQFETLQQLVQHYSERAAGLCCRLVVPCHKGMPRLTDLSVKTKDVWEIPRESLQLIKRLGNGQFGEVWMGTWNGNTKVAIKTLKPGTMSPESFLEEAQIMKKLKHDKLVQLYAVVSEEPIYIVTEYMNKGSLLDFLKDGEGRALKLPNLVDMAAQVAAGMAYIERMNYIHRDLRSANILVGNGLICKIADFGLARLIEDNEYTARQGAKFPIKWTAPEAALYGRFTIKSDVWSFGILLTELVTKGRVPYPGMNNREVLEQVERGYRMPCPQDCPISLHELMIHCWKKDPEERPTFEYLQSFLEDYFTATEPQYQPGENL
Chain of Fes (P07332 whole entry, looked up): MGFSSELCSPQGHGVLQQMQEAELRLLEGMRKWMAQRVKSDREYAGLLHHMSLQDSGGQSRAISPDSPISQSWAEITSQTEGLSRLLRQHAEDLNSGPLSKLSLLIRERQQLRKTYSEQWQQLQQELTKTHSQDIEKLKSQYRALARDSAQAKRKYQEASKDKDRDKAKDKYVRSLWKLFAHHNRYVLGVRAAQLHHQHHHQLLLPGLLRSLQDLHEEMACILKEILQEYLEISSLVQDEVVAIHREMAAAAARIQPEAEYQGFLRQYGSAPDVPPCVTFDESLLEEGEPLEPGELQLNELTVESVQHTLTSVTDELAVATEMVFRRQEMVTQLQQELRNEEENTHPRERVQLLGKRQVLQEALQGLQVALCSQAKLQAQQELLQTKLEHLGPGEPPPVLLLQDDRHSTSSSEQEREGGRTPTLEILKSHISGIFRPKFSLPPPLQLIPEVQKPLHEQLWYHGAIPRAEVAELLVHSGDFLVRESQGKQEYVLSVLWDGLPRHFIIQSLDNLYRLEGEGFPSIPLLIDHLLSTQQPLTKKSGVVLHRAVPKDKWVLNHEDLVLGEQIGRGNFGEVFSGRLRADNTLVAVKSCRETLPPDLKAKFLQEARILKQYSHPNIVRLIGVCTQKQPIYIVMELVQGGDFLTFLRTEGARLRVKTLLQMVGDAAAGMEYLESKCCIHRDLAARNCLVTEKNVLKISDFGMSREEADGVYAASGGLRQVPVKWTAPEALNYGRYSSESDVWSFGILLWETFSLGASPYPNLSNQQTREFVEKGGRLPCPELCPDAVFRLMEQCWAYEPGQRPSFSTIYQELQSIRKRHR
Chain of Jak2 (O60674 whole entry, looked up): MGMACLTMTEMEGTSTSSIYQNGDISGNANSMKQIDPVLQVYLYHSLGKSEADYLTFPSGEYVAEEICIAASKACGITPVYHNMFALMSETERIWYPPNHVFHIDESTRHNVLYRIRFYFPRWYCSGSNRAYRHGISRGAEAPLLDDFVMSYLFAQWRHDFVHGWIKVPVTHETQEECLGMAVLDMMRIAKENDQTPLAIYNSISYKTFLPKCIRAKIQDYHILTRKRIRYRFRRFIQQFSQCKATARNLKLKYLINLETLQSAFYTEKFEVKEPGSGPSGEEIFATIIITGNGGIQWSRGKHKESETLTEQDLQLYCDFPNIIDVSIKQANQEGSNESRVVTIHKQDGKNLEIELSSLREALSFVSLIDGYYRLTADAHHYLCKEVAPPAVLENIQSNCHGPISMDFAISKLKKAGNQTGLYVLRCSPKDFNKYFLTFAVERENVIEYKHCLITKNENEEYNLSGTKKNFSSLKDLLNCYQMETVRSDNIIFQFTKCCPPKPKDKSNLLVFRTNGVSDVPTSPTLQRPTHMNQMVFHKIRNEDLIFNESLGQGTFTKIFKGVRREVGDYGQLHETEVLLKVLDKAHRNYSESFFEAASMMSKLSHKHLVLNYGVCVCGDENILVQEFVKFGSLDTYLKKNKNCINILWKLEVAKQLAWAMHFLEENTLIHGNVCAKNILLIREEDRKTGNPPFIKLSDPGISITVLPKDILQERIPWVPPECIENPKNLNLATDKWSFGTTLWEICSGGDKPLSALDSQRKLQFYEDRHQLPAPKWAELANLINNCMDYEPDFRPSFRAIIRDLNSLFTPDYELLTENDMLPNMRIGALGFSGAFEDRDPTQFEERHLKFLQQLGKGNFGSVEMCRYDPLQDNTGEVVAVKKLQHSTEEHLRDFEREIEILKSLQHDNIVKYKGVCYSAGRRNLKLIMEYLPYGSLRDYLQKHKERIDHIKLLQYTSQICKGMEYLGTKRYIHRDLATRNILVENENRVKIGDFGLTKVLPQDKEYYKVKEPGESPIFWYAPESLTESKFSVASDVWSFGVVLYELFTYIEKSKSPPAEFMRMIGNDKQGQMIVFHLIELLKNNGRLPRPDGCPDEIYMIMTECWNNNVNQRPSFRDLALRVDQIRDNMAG

Regarding SHRQDYLVGNK [GSTA1_Y147_G144R], the phosphorylation enrichment with MERTK is 0.311; in the data set with c-Abl (mouse), 0.867; in the data set with Hck it was 0.397; with Fes, 0.665; with EPHB2, 0.431; with EPHB1, 0.488. Further, the phosphorylation enrichment came out at 0.441 in the data set with AncSZ; 0.415 with FGFR3; 0.324 with FGFR1; 0.334 in the data set on Fer (mouse); 0.385 in the data set with c-Src; 0.466 in the data set with Jak2. Besides, the phosphorylation enrichment in the data set with Fyn turned out to be 0.435. Further, the SH2 binding enrichment in the data set with SHP2-C SH2 amounted to 0.802; in the data set with Grb2 SH2 it was 0.55; in the data set with c-Src SH2 it was 0.501.

For the sequence KAIMTYVPSFY [ACTN4_Y260_S262P], the phosphorylation enrichment was determined as 0.439 in the data set with MERTK; 0.803 in the data set on c-Abl (mouse); 0.425 in the data set with Hck; 0.646 in the data set with Fes; 0.63 with EPHB2; 0.413 with EPHB1. In addition, the phosphorylation enrichment was 0.67 with AncSZ; 0.509 with FGFR3; 0.378 with FGFR1; 0.415 in the data set on Fer (mouse); 0.472 in the data set on c-Src; 0.639 with Jak2. For the same sequence, the phosphorylation enrichment with Fyn came out at 0.52. Moreover, the SH2 binding enrichment in the data set with SHP2-C SH2 is 1.03; with Grb2 SH2 it was 0.818; with c-Src SH2, 1.15.

As to HSRTRYERNIE [F2_Y434], the phosphorylation enrichment stood at 0.763 with MERTK; 0.929 with c-Abl (mouse); 0.766 in the data set with Hck; 0.986 with Fes; 0.531 in the data set with EPHB2; 0.851 in the data set with EPHB1. Moreover, the phosphorylation enrichment in the data set on AncSZ turned out to be 1.08; with FGFR3, 0.663; with FGFR1, 0.835; in the data set on Fer (mouse), 1.14; in the data set with c-Src, 0.683; in the data set with Jak2 it was 0.742. For the same sequence, the phosphorylation enrichment in the data set with Fyn was 0.465. Further, the figures for the SH2 binding enrichment in the data set with SHP2-C SH2, in the data set with Grb2 SH2 and with c-Src SH2 were 1.37, 1.31 and 0.752, respectively.

HPYNSYTYPRL [PAK5_Y316_S312P]: the phosphorylation enrichment amounted to 2.57 in the data set with MERTK; 0.374 with c-Abl (mouse); 0.984 with Hck; 0.875 in the data set with Fes; 0.531 with EPHB2; 0.731 with EPHB1. The phosphorylation enrichment is 1.2 in the data set with AncSZ; 0.962 with FGFR3; 0.998 in the data set with FGFR1; 0.674 in the data set with Fer (mouse); 1.3 in the data set with c-Src; 0.429 with Jak2. Besides, the phosphorylation enrichment with Fyn came to 0.968. Further, the results for the SH2 binding enrichment with SHP2-C SH2, with Grb2 SH2 and in the data set with c-Src SH2 were 0.677, 0.813 and 7.32, respectively.

As to LVRPPYSFSAL [FOXI1_Y126_YF], the phosphorylation enrichment is 0.363 in the data set with MERTK; 0.465 in the data set on c-Abl (mouse); 0.423 with Hck; 0.618 in the data set with Fes; 0.46 with EPHB2; 0.385 with EPHB1. Further, the phosphorylation enrichment was determined as 0.602 with AncSZ; 0.434 with FGFR3; 0.395 with FGFR1; 0.479 in the data set with Fer (mouse); 0.409 in the data set with c-Src; 0.553 in the data set with Jak2. In the data set with Fyn, the phosphorylation enrichment came to 0.419. In addition, the SH2 binding enrichment is 0.562 with SHP2-C SH2, 0.809 with Grb2 SH2 and 0.478 in the data set with c-Src SH2.

As to VITDYYVDMKF [MPP4_Y567], the phosphorylation enrichment in the data set with MERTK turned out to be 1.15; with c-Abl (mouse), 1.18; with Hck, 0.929; in the data set with Fes, 1.23; with EPHB2, 1.98; in the data set with EPHB1 it was 3.65. Moreover, the phosphorylation enrichment in the data set with AncSZ is 1.61; in the data set with FGFR3, 5.31; with FGFR1 it was 7.13; in the data set on Fer (mouse), 1.4; with c-Src, 0.88; with Jak2, 2.25. Moreover, in the data set with Fyn, the phosphorylation enrichment worked out at 0.881. Further, the SH2 binding enrichment with SHP2-C SH2 came to 0.6; in the data set with Grb2 SH2 it was 0.993; with c-Src SH2, 1.31.

As to MENFIYESMQY [CYP19A1_Y361_R365Q], the phosphorylation enrichment was determined as 3.64 in the data set with MERTK; 1.24 in the data set with c-Abl (mouse); 7.07 in the data set with Hck; 3.36 with Fes; 5.02 with EPHB2; 7.15 with EPHB1. For the same sequence, the phosphorylation enrichment in the data set on AncSZ came out at 1.37; with FGFR3, 0.724; with FGFR1, 0.652; with Fer (mouse), 13.3; in the data set with c-Src, 6.84; in the data set with Jak2, 0.894. Besides, the phosphorylation enrichment with Fyn was 9.05. Further, the SH2 binding enrichment is 0.954 with SHP2-C SH2, 0.914 in the data set with Grb2 SH2 and 0.786 with c-Src SH2.

For TISPFYRQSLF [CRYAA_Y48_YF], the phosphorylation enrichment with MERTK was 0.467; with c-Abl (mouse), 0.49; with Hck, 0.396; with Fes it was 0.76; in the data set with EPHB2 it was 0.528; with EPHB1 it was 0.435. The phosphorylation enrichment in the data set with AncSZ was determined as 0.648; in the data set with FGFR3 it was 0.489; with FGFR1 it was 0.448; with Fer (mouse), 0.369; in the data set on c-Src it was 0.395; with Jak2, 0.693. Further, the phosphorylation enrichment in the data set with Fyn worked out at 0.437. In addition, the SH2 binding enrichment with SHP2-C SH2 came out at 0.706; in the data set with Grb2 SH2 it was 0.85; in the data set with c-Src SH2, 0.612.
